Source: patent publication US12214046B2, “Protein-loaded PLGA nanospheres” (West Virginia University Board of Governors on behalf of …, priority 2019, dated 2025)

Assay: In vivo induction of free IL-12 toxicity in healthy mice (blood immunophenotyping by flow cytometry)
Set-up: species or system BALB/c mice
Settings: 100 ng or 100 ug retro-orbital, baseline vs 48 h
Procedure: Red blood cells were lysed with Red Blood Cell (RBC) Lysis Solution (Miltenyi Biotec, Auburn, CA). Single cell suspensions were split and incubated with optimized lymphoid (L) and myeloid (M) antibody panels according to the manufacturer's instructions: a minimum of 1×104 events were analyzed for each sample.
Two groups of four BALB/c mice (two female and two male per group) were cheek bled by piercing the facial venous plexus with a sterile 4 mm Goldenrod Animal Lancet (Braintree Scientific. Braintree. MA) to gather 100 μL whole blood for baseline immunophenotyping. Immediately following cheek bleeds, each group was given a retro-orbital (r.o.) injection of either a low (100 ng) or high (100 ug) dose of free recombinant mouse (rm) IL-12 (eBiolegend. San Diego. CA) with 0.1% mouse serum albumin (MSA. Sigma. St. Louis, MO) in 150 μL DPBS. At 24 and 48 hours following r.o. injections, mice underwent additional cheek bleeds for immunophenotyping.
Twelve BALB/c mice were cheek bled for 100 μL whole blood (baseline) before being dosed with either 100 ng (L: low dose) or 100 ug (H: high dose) of recombinant mouse (rm) IL-12 via retro-orbital (r.o.) injection. Mice were cheek bled again at 24 and 48 hours (48 h), and blood samples were immunophenotyped via flow cytometry. CD8^−CD4^+ helper T cells (left, white). CD4^−CD8^+ cytotoxic T cells (middle, gray), and CD8^−CD4^+FOXP3^+CD25^+/− regulatory T cells (right. black) were assessed for the extent of PD1^+TIM-3^+ positivity, which can be indicative of exhaustion. Shown in FIG. 17 are T cell data from baseline and 48 h time points. Individual bars (top half) represent group averages+SD. […] Baseline blood samples (n=4:2 male and 2 female per group) were compared to 48 h samples using unpaired two-tailed/tests, * p<0.05, ** p<0.01. *** p<0.001.
Twelve BALB/c mice were cheek bled for 100 μL whole blood (baseline) before being dosed with either 100 ng (L: low dose) or 100 ug (H: high dose) of recombinant mouse (rm) IL-12 via retro-orbital (r.o.) injection. […]

B1: IL-12: Recombinant mouse IL-12 (p70), immunostimulatory cytokine, purchased from Biolegend (protein, UniProt P43431 23-215; P43432 23-335, looked up)
Interleukin-12 subunit alpha: RVIPVSGPARCLSQSRNLLKTTDDMVKTAREKLKHYSCTAEDIDHEDITRDQTSTLKTCLPLELHKNESCLATRETSSTTRGSCLPPQKTSLMMTLCLGSIYEDLKMYQTEFQAINAALQNHNHQQIILDKGMLVAIDELMQSLNHNGETLRQKPPVGEADPYRVKMKLCILLHAFSTRVVTINRVMGYLSSA
Interleukin-12 subunit beta: MWELEKDVYVVEVDWTPDAPGETVNLTCDTPEEDDITWTSDQRHGVIGSGKTLTITVKEFLDAGQYTCHKGGETLSHSHLLLHKKENGIWSTEILKNFKNKTFLKCEAPNYSGRFTCSWLVQRNMDLKFNIKSSSSSPDSRAVTCGMASLSAEKVTLDQRDYEKYSVSCQEDVTCPTAEETLPIELALEARQQNKYENYSTSFFIRDIIKPDPPKNLQMKPLKNSQVEVSWEYPDSWSTPHSYFSLKFFVRIQRKKEKMKETEEGCNQKGAFLVEKTSTEVQCKGGNVCVQAQDRYYNSSCSKWACVPCRVRS
Q: Which “effect on PMN-MDSC in peripheral blood” value does the source give for B1 here?
A: Polymorphonuclear-Myeloid-Derived Suppressor Cell (PMN-MDSC) Myelocytosis

Q: And the “effect on T lymphocyte subsets in peripheral blood (PD1+TIM-3+ positivity)” value?
A: T cell exhaustion of helper, cytotoxic, and regulatory T lymphocyte subsets

Q: And the “effect on circulating Natural Killer (NK) cells” value?
A: Decrease of Circulating Natural Killer (NK) Cells
